We go through 69 sequences from the domain aggregation screens of Martell et al. (2025).

This data set is described as follows: soluble fraction after stress (log2 fold change); higher = more stays soluble; pooled small domains, quantitative proteomics. The settings on record: stress: pH 4. In outline:
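High-throughput quantitative proteomics was run on pooled custom libraries of small protein domains following pH 4 stress. Fold changes are on a log2 scale; higher values mean more of a domain remained soluble. The fold change in soluble amount is taken as a measure of aggregation propensity.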
“HMRDITAQSNASELYFEERDLEAFIEKLERLYPEIRYVNRLMIHSWGQQVVRFFDPDGNLIEVGTP”: the “soluble fraction (log2)” value was -1.28. Next, “HMRDKTMLGNVIRTRRKKMNLTLEELSKQVGITSGGLSQIERGLVDPSLSVLRRISRALNLPMNVMFSE”: ≥ 0.43; “HMRDLAEAETILDALPTRLRKIVRWRHLEGLSQTEIAARLEISQMHVSRLYRRAISMIHASLADD”: -0.843. To “HMREEQELFRKLLEVNGIGPKVAAGMLAGGRPEDVVSAIRREDVAWLTKLPGIGRKTAQRIVLDLKDKLD” belongs 0.165.

As for “HMREPQMVTVNGDKVTHGHAYRSNVNPEDWYFTARINGQQLKPQKMEPADVAAYDKKEIGVPELMQR”, the “soluble fraction (log2)” value was -0.0539.

As to “HMRESPYRRVAKFLLLIGTAEAAKIVSRLDQDQVEKVMLELSGIRSVPRDEATVILAEFESLLQQAR”, the “soluble fraction (log2)” value is -1.2.

Consider “HMRESRLFQILYQLLTKKKVTAANLAKQFEVSVRTIYRDIDALSSSGIPIYASQGKNGGIQLDEDF”, for which the “soluble fraction (log2)” value is -0.999. Next, “HMRETELPVTIISAGRILAENLHLAGRDGGWLEAELKRRSLTAEQVLLLTVDAAGTVYLVRKEDL”: -0.617; “HMREWPLWEIFIRGQHGLNHRHVGSLHAPDAAMAIGNARDVYTRRNEGVSIWAVRSADVVASVPSE”: -1.44. “HMRGADNAASILKEVGPHPEDGKPITVRSGRYGPYVKHGTTNATLPKDIKPEEITLDEAIALINERVAKG”: the “soluble fraction (log2)” value is -0.143. Consider “HMRGGKGTVPDVTGMDAAAAVRILEKAGMNVAYIRGAGFVAEQTPAAGTKLKKGDKAYITLSWK”, for which the “soluble fraction (log2)” value came to 0.181. To “HMRGGWESLTDREREIAVLAAEGHSNRTIASTLFISDRTVQSHVSRALRALGVDSRTGIPSLVTTATR” belongs -0.217; to “HMRGWGTVKRRTPKSGRYRASYIGPDGKRYAADHTYAAKVDADAWLSSERALITAGVWTPPTDRVT”, -0.0591; to “HMRHLSVPSQDTQQVLQRLKVELALPEGARVRSDPSDPGRRLIPFTESVPQEMIDQYPVVSINI”, -0.458. Next, “HMRIAGIDIPDNKRGEVALTYIFGIGRSSSKKILKSAGIDSDKQIGKWTDDESNLVRKLIRDEYTIEGDL”: -0.484. To “HMRIASANAIYDELLNKRDDAKLAELKQEDINLYALYILQNGSADERAALENTQGIDVVLKEIINLQNG” belongs -0.416.

Turning to “HMRIGINDRIHEIVDVLRLKKSTPFEDLFSGLVTRFDLVITFLALLEMGKLRLLRLYQTDPLAPLHVEYTG”, the “soluble fraction (log2)” value was 0.0416.

For the sequence “HMRILDFPALKTEFDQLTKDLMAKYPEDGADRVRAIIETVLGPGKKVGALQPHQAELLAEVNTSLKANL”, the “soluble fraction (log2)” value is -0.0969. With “HMRILGIDPGTRITGYGIIDIEGNRLRHVDNGIIKTRSSDALPLRLKVIYDGLTAVLKQYSPQAV”, the “soluble fraction (log2)” value is -0.629. Turning to “HMRIQTVDYNTFISMVEDGKVDAAEIQQQENRILFSDQDQKVYKTAMVPDDDLTQRLLDAGVSTNG”, the “soluble fraction (log2)” value is -0.837.

Regarding “HMRISKRQLILESAAAIINEKGADYLTLDAVAQRAGISKGGLFYHFKSKDELIKELVNYANN”, the “soluble fraction (log2)” value was -1.57.

Turning to “HMRISLKAQVYEYLKQAIINGDLKVGEIYSEQYFADKLSISRTPVREAILQLQHENMVEVKANRGIIVK”, the “soluble fraction (log2)” value was -0.406.

For “HMRITTKNYFKAISEVGFENLPEVLKKSHLVIEEKTNKGNDWGIYENDAEAKKVFDLAFDKLEEFIDRKED”, the “soluble fraction (log2)” value is -0.203. To “HMRIVQTDYRNFLSQVESGAVRSVQIDETQIRYTALDSGGKEIVYNTGKVDDPGLVNRLYDAGVEFSQVIP” belongs -1.23; to “HMRKATEVPFTAFKDSIENSHGKLSKAGLARHLADEYGMSQRNMERRINNLIDNKTIKYGNEGGLVWIG”, 0.22; to “HMRKDWTPGAFVEAFVNDTPATRSTILAKAVSAGLSRWAADNLLRTADNDGLMVRQGSGKRNEPFTYRRGP”, 0.22. To “HMRKEEFIRELVLELKQNVSEQVILEQKRFYEEYILTEVRGGKTEEEVIASLSEPRLLAKSIIDAAEAGGD” belongs -1.5. With “HMRKKDGEAYVLPRPLKKGDSVLIYDIDKKGTVLQPPEKGGKTALIQAGIIQTRVPVSNLRLLE”, the “soluble fraction (log2)” value was -0.0646. Next, “HMRKKIIAQTLEEIRKSKGYSQKQVAAFIKVKPTTYNTYESGRTEPPAEILVRLSYLYRTPVDTLVQRDR”: 0.226.

“HMRKMNDAVFYVEMSRPKRGYYTATYKLITRNPNSLPEHEITRRFFQMLEETIRKNPPYYLWTH”: the “soluble fraction (log2)” value amounted to 0.104. Take “HMRKPISQEIVDEVLKLAKNNPDWGYDRIAGVMKYLKYDVSATTVRHILDDNGIVPDPERRLR”: the “soluble fraction (log2)” value was -0.0119.

“HMRKRLLQLVHIGKSQLGMDDETYRSLLSQQFYQNSAKNISYSELVKLVKILQQKGAKIRLPH”: the “soluble fraction (log2)” value turned out to be 0.262. Next, “HMRKVVLEEKEANYYAEPNSESELLGVLKRGIHLTVTDVKKEAGSDGWVKLVHPDGQEGWISGRARIRV”: -0.209; “HMRKYKIKEELPDNIYKIIQDNPGIVQKDIYDILGREYQQNISSYIYSMDKNGVIKRDKHGNSYKLYL”: -1.01; “HMRLATSELVYRIRALIRDQELQPGERLGSERALAQSLGISRSDLRMALAVLEASHEVIRKIGRAGGIVVS”: ≥ 0.43. To “HMRLHSSGEDYLKAIFILEAQHSSVRSVEVAEYMNVSKASVSHAVALLKKNGFLKMNQDYDLTER” belongs -0.906; to “HMRLIALPSVTDISIRQAEATLMSIGIKVSSIQYAPSEYKDLVLEVKYRGQSIIQGAKIPEGSSVVLVAGN”, -0.122. To “HMRLPLYLALAQTLRQEIDAKQYKIGAHLPPEDQLVVKYGVSRHTVRQALQELKNEGLITSKAGIGTIVSS” belongs 0.154. As to “HMRLPQEVWEKIRAAYEAHGLSFSELAEMYGVNKSNISRRAKAEGWNQAETQRLITATVENE”, the “soluble fraction (log2)” value came out at 0.211. For “HMRLREETRKVDKTGLIQVDGRHYRVPDEYSQKDVQILMDDNSIMVYRKGDFVIELDKETSVYMPH”, the “soluble fraction (log2)” value was -1.02. To “HMRMETRILTADESGIRLDAFLASRLAVSRSLAASLIDDGNVTLNGTVPKKKTAVNVGDILEVAMP” belongs 0.22; to “HMRMLTKRRQDLLLELLEERGSITVSEVKDMLDASESTIRRDITALDEEGKLVKVFGGAVAAR”, -0.465.

For “HMRMSRSARLFDLLHILRSHRRAVSGQALAQQLGISIRTLYRDIASLQAQGAKIEGEPGVGYMLKP”, the “soluble fraction (log2)” value is -0.0136. To “HMRMTKQRQAVLDELTRVTDFRSAQQIFEDLHSQGHRVGLATIYRSLQGLAEDGSVDTLRSSDGESLY” belongs -0.169. With “HMRMTRQRKVILEELGKVYTHPTADEIYTMVKEKLPNISLGTVYRNLDLLAENNQVLKLETAGNIRRYD”, the “soluble fraction (log2)” value is -0.375. To “HMRMYDVNEYSDEELHRILDLSSPTDSELEARILQMIQKYKYTNGGDNEKMAVFFENIYHHFFD” belongs -1.54. To “HMRNAAGGIYGWMTLHQVAETVKLTEEEVIAITNLPAGIPRDVSLKNIEGVNDEELRALLEAYLEKQ” belongs -0.968. Next, “HMRNISLSLRWHSGEWTADRLKSEVLALPGAMDMTVFEPQSQAYLRVEQGFDTKLLPAGIDVH”: -0.958; “HMRNNKLRRANKLKTEFENLPHIGKKRAHVLLKAFGSTENLKMTTAQALSEAAKISLKQAEEVLEAVRG”: -0.0912. On to “HMRNQIRAVITPVPNQERYTVEMTIDDDAGNLLTLQMAAPDRQQAAEFAQRFQKHPEALYHAVLSVLL”, for which the “soluble fraction (log2)” value is -0.191. Next, “HMRNSFTVENTGERLDVFLTGQMPEFSRSHIQKLIASGQAWVNGVNRKGNFKLKPHDVVELEVPEPE”: 0.169; “HMRNSVQREWIYDYIQRQDAHLSADEIYEGLLKEGKNISLATVYRNLSILVDEYKIASVMTDSKKQVYDK”: -0.327. To “HMRNTPQRRHAILALLSEQGEVSVDALAKRFSTSEVTIRKDLAAMESHGLLLRRYGGAVPMPQELI” belongs 0.0719; to “HMRPEVALSSRELEILEALATGKSNKELAQRLFISEATVKTHLIHIYQKLGVDTRTAAVTVARERKL”, -0.431.

Turning to “HMRPEVTEHLKTADAILHGGDINRQSIVDELRQYAPLYIVRGNNDKDWAEAIPHDLTVTLGGVTFFMVHNR”, the “soluble fraction (log2)” value was -0.42. Regarding “HMRPFAMNLLEKHKADIEVWLKHPNMTNTQIKRLLEELGTSVSVSSIDRFISTSFPKLPKHT”, the “soluble fraction (log2)” value was -0.207. Next, “HMRPIWVQLADDFRHRIVSGQWPPGSKIPSVRELAAETGVNPNTVQRALGALDGEGLTATERTAGRFVTT”: -0.0115; “HMRPKVADIDYFDGKTFTIEDGSKHSITTSEAKKIYFYLVKNGYVDDESHVTDAYRSAATSGTLA”: -0.0612; “HMRPQELSSLNTNQMRLYNSLPEAFITAEAKDIADKLRYSERSLFRFLNESNLFTKTEHGSYAKKA”: -0.585. Next, “HMRPQYVDLFTKLSAEEAGAITSKLKELKVEYQLADNGSTIKVPQKDAAEIRLELANEGLPA”: -0.283.

For the sequence “HMRPRQDRSEETRDRILDAVVELIAERGLAGVSHRAVADRAGVSLSATSYYFGSKAELERAALEEHYRR”, the “soluble fraction (log2)” value was -0.992. To “HMRPSGEAVNAAYRLLKGANPSGNEGDLIQRAQEVAAILPKLNRSSAAAFAKDAKANGLTQAETIALWKGS” belongs 0.163; to “HMRPTYRTRLEVLINNPAISGRDLDFAQSLLSYYERKGRLSAGRVKWVTTLEERYSPENLAASAAK”, -0.306. Regarding “HMRQFEPVEGYNPYADKNELHGYEYWGAKFADSRSPEETAWIKQQIDDENEDRRFISEAGLA”, the “soluble fraction (log2)” value is -0.446.

In the case of “HMRQQQISAAIKTSVNGTVDYYVRRLPERDPRGDFLEVWDDLQKVIQAAHGIQVSHDELYEYFRRLK”, the “soluble fraction (log2)” value was -1.19.

Regarding “HMRQQSLHSLYRDHHSWLQNWLRRQLGNTWDAADLSQDTFIKVLASSQSVAEIREPRAYLLTVGKRL”, the “soluble fraction (log2)” value is -0.0586. Consider “HMRQSDIAAAFRESILRSSKGFQYLHTRDFVTALRRRGIHLSEVEANSWIAREKTYFVDSALDHSENRLWI”, for which the “soluble fraction (log2)” value is -0.634. To “HMRQSIHTALQLLTPREEEVLNLLVSGKSNKQVAEHFSLSSKTIERHRSSVMRKLDASSFAQLVRIAALR” belongs -0.404; to “HMRQYPSGVFKEEGVKAVYIHAGTPFLVIAAQYKIPLARLFEWNNLLPSTEARISQVIYLERPG”, 0.238.
